Assay results from publication PMC3320615, “β-Microseminoprotein Endows Post Coital Seminal Plasma with Potent Candidacidal Activity by a Calcium- and pH-Dependent Mechanism” (PLoS Pathogens, 2012).

Tests used:
[1] = biological target: the molecule itself; experiment: SEC; HiPrep 16/60 Sephacryl S 100 column; 50 mM Tris, 150 mM NaCl, pH 7.5, with 1 mM calcium or 1 mM EDTA; native MSP
C. albicans = experiment: Scanning electron microscopy of C. albicans; format: cell-based, Candida albicans; conditions: 5 h; 20 µM MSP with 40 µM EDTA, or EDTA alone
Procedure: Specimens were washed with cacodylate buffer, and dehydrated with an ascending ethanol series from 50% (v/v) to absolute ethanol. The specimens were then subjected to critical-point drying in carbon dioxide, with absolute ethanol as intermediate solvent, mounted on aluminum holders, sputtered with 30 nm palladium/gold and examined in a JEOL JSM-350 scanning electron microscope. A small volume from each of the samples was also plated to check antifungal activity.

B1: β-microseminoprotein (natural protein, human, UniProt P08118 21-114, looked up)
chain: SCYFIPNEGVPGDSTRKCMDLKGNKHPINSEWQTDNCETCTCYETEISCCTLVSTPVGYDKDNCQRIFKKEDCKYIVVEKKDPKKTCSVSEWII
notes: human β-microseminoprotein (MSP, PSP94), native protein purified from seminal plasma; also called MSP; PSP94
stoichiometry N [1]: 2
Effect on C. albicans by scanning electron microscopy (C. albicans): aggregated with disrupted membranes causing cell content leakage
